Measured values reported in the DeepSol protein solubility set.

experiment: soluble on expression in E. coli; label from the status in PepcDB or PDB records

Soluble on expression in E. coli, not soluble:
MGSDKIHHHHHHMFRLQFRLFPPLRTAMHILLTALLKCLSLLPLSCLHTLGNRLGHLAFYLLKEDRARIVANMRQAGMNPDPKTVKAVFAETAKGGLELAPAFFRKPEDIETMFKAVHGWEHVQQALDKHEGLLFITPHIGSYDLGGRYISQQLPFPLTAMYKPPKIKAIDKIMQAGRVRGKGKTAPTSIQGVKQIIKALRSGEATIVLPDHVPSPQEGGEGVWVDFFGKPAYTMTLAAKLAHVKGVKTLFFCCERLPGGQGFDLHIRPVQGELNGDKAHDAAVFNRNAEYWIRRFPTQYLFMYNRYKMP
MGSDKIHHHHHHMFRVVICDDEKIQRSILKEFTEKLLSERCLNYQILEFSCGEDLISKYPEKIDIIFLDIQMKDINGIEVAKKIRKFDEKVEIIFTTAFSEYAPQGYEVRAYRYLVKPIEYSNFAMGVNLCIDNLQRKKERYIVLNSKKGFNRILIDSILYVETVKRDLVVHTIGRDYKANMSMKQAEKLLCENGFFRCHTSFIVNLRRIEDLRDNMITINEQFIPISKYRLKDLKVALTSLLCDIMY
MGSDKIHHHHHHMFTQDESYIKWKLFLEGDDQAYSWIYTHYIQVLYNYGLQITPDSEIVKDCIQDVFVKIYKAKKKLTVPQNPKVYLMIALKNNIYNTFNQERLQKNYAFSLYQTEEQLTVKNEFIDQEARHEEMNNIKRMMKILTPRQREVIYYRFIEELSYDDICQIMGLNYQSAYNLLQRSLQKIREAYGVTGIWMLILHQLTYLH
MGSDKIHHHHHHMFTTQIHLKVLAMMLLCGLLNACSQTPQQCSSAIITTWSSAHSQITQDITTLSSTEFQGRKTDSEGARLTQAYLITRFTEMGLQPWQPNFAVPFSFQHQFSTVSGVNIIATIAAKTRSNRWRVITAHYDHLGQTANKMYPGADDNASGIAGMMAIAAQWQENPPLDDVNLMIVATDAEEPGLYGSYALVTLLQQYPLMDIELSVNLDMIGHPDRRRAIYMEGQKNLSNFESIKPLLMQQTQLCIRTHHTNLLSGRMKKSDWLRASDHYPFHKAGYSWVYFGVPPHAQYHTADDTIATLDIDFIVAVAETVYQMLSIDKLTKAP
MGSDKIHHHHHHMFVIWSHRTGFIMSHQLTFADSEFSSKRRQTRKEIFLSRMEQILPWQNMVEVIEPFYPKAGNGRRPYPLETMLRIHCMQHWYNLSDGAMEDALYEIASMRLFARLSLDSALPDRTTIMNFRHLLEQHQLARQLFKTINRWLAEAGVMMTQGTLVDATIIEAPSSTKNKEQQRDPEMHQTKKGNQWHFGMKAHIGVDAKSGLTHSLVTTAANEHDLNQLGNLLHGEEQFVSADAGYQGAPQREELAEVDVDWLIAERPGKVRTLKQHPRKNKTAINIEYMKASIRARVEHPFRIIKRQFGFVKARYKGLLKNDNQLAMLFTLANLFRADQMIRQWERSH
MGSDKIHHHHHHMGEAIVITSGKGGVGKTTTSANLGTALAILGKRVCLVDTDIGLRNLDVVMGLENRIIYDLVDVVEGRCKMHQALVKDKRFDDLLYLMPAAQTSDKTAVAPEQIKNMVQELKQEFDYVIIDCPAGIEQGYKNAVSGADKAIVVTTPEISAVRDADRIIGLLEQEENIEPPRLVVNRIRNHLMKNGDTMDIDEIVQHLSIDLLGIVADDDEVIKASNHGEPIAMDPKNRASIAYRNIARRILGESVPLQVLEEQNKGMMAKIKSFFGVRS
MGSDKIHHHHHHMGEMVELKKELLRDVDLAERLLGRERPVKSEIEIRGKITRSTIEEISRIKKEPEWMKRLRLRSLELFYKLPTPKWLVGIDVIDLDEMIVYSKPETERASSWEELPKEIREFYERLGLPEIEARFLSGLSAVFDSETVYARVKKYLEEKGVIVMPIEEAVQKYPDLVKRYFMRVFPPSDHKFAALHGALWSGGTFIYVPRGVKIREPIESFFLIGKSGEGQFEHSLIVADEGAYVEWIEGCSAPRLTKFSFHDGMVEAYAHRNATIKIITVQNWSKDVINLNNKRAIAEEGARVDWVEGSIGSKMTFVYPSTILKGDNSSSRSAVVTIAKGPYLKDSGSKMIHVGRNTRSQVINKTISADGGINVYRGIIRIVKGARNAVANVECESLILDDKSKAHTYPHNQVDEPTASVNHEATTGRLTEPQLFYLTSRGLTEEEAKSLIVLGFLEDVLKELPFEYANVLTKVVRLEFSEYGAFG
MGSDKIHHHHHHMGGLQNVRSAALIGHNGSGKSLLLAQILYKSGLIDKADTKYVDYDPVEEEKGASFSSHVASLEWKGKKVYLIDTPGFSDFISEVINGIFVSENIISVVNAVAGVEIQTERTWNMADEMKKPIIVFVNQMDKERANFENVVAELKERFSRKIVPVVVPIGAAENFEGVVDLLKKKAYRYDGDKVQEEDMPESFNDMRSEILEDIVEQDEELMMRYLDGEDIGYDELMRVLKEGYKKGEIVPVLSGSALKGIGLDLLLDYLGDIGVSPEEAPSYKALLEDGTEIEVKFSEEEPFCAYIFKSVVDQFVGRITFAKVIAGVLRPGDTVVNVQKDVTEKVGHVYVPILKQQKEVESAGPGEIVVLLKLKEGAVGETLAHRDRRVKIVPPAFPEPMFSRSVHPKSKSDIDKISSGLSRLSDSDPTFVWEYDPETGETVVSGLGAMHLDVMIERLKKIFGVDVEVGKPKIAYRETITTTAVAEHKHKKQTGGHGQYGHVKIQLEPLPRGQGYEFVDKIVGGVIPRNFIPSVDKGIREAMKKGVLAGYPVTDVRVILFDGSYHEVDSSDISFQIAAIQAFKKGMEAAKPVILEPIMEVEVFVPEENAGDVMGEISSRRGRPLGMEPSGKGMVKVKAEVPLAEMLDFSSKLSSITSGRGYFTMRFQRYEIVPPNIQEKIIEERRREMQEQEK
MGSDKIHHHHHHMGILVVGSVAFDSVETPFGRVENVLGGSATYFSTSASFFTDVSLVAVVGEDFPQEHVEFLNSRNIDLRGLAREGGKTFHWKGKYGYDLNEAQTLETHLNVFESFRPQIPAAYRDAEFLFLANIDPELQMEVLSQVEKPRVIACDTMNFWISSKPEALKAVIAKVDIFIINEGEARQFTQEANLTKAARKILAMGVKTLVIKRGEYGVLMFTDHSVFAAPAFPLEDVFDPTGAGDTFAGGFMGYLANTGDTSETGIRQAIIFGSVMASFNVEDFSLNRLKRLEYREIEDRYRSFKALTHFEGLAGG
MGSDKIHHHHHHMGKGTNPTIGIALGSGAAKGWAHIGVLNGLAAMGIKPDKVAGCSVGALVGAAYAHNHLAELEEWVRSFSSWDVLGLMDIRWRKGGLIGGEKVFDVLQSRIGDVNIEDLEYPFAAIATDLYSGQEIWFRHGDLRQAVRASCSMPGILAPVRQGERWLVDGAVVNPVPVSVSRAMGVDIVIAVDLHGFHSGRLQVLPVNMTSHRATKEDTEMPARQETGFMDLFARGREYVSNLTDKFSLGTKSNPGMIAVMSQSMGILEQRHKRARLMGDPPDICIVPEVANIGTMEFHRADEAIAAGEAAVAKVAHLIEAAIWKD
MGSDKIHHHHHHMGKVTIEPLSRLEGHGKVSITLDDAGKPTDVKLHITALRGFEQFVVGRPAEEVPRIVPRICGICQTPHHLASVKAVDAAWGAEVPSAAEKLRELMHLGNMMHSHALHFYYLAAPDFVLGPDSDPAARNIIGVIGAAPEVAKKAIAMRRVGQSIVETIGGRAIHPVTGVPGGVSKALSEEKRDELLNEIDEMIAYGQDGIALIKSLNEKYMDLAKTLGVIDTWYLGMVKDGKHNFYGDTLRFMSPDGKQTTDFKPSEYLDNIGEHVVGHNYVKYPYNKKVGYPDGLYRVGPLAMLNVCDSMPTPLAEEARKDFADTFGKPANQSLAYNHARLIELLASCERVKELLEDSEITSTDIKAEVEPKAGNGVGAIYAPRGTLFHNYETDDKGIVVKANMIVASTHNVPTMEKAIQQAAEVVFK
MGSDKIHHHHHHMGKVYVIGNFKGGVGKTKTVTMLAYESALQLGRKTLVIDLDPQGNATRVLAKTGDLAEITYTVTEAFQEGSLEPAITNISENLDLIPANTAFRNLTKILMTKFPSNEFDQINYLNTLLKPLKEKYDAIYIDVPPTISDFSDNAMLAADYCIIVLQTQELSLDGAQTYIAYMQYLADTYDNDLQVLGIIPCMLRPGGRVDNKVLEQAKELYGGNVLNTVVKYQERLKVYDVEGIKISHNYTGKADGWDVKAHKVFIDVLNELDQHQLVLEELEG
